Data from US20240279318A1 (NANJING LEGEND BIOTECH, published 2024).
Like-named read-outs stand apart in the source and are kept apart here.

Key:
[1] = molecular target: T1, AFP158/HLA-A*02:01 complex (human); assay: SPR, crude scFv captured;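 also: Peptide–MHC complex flowed at several concentrations over sensorchip-captured scFv, Kd derived from on- and off-rates obtained from the association and dissociation curves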
T1 construct: biotinylated on the BSP by BirA for ELISA and panning; also called biotinylated AFP158/HLA-A*02:01 complex; Bio-AFP158
Procedure: (§1) The experiment was carried out as follows. The crude scFv protein were captured onto the sensorchip. Different concentrations (320, 160, 40 nM) of AFP158/HLA-A*02:01 complex flowed over the sensorchip surface, and were allowed to bind the antibody fragment for 100 s followed by injection of the running buffer to allow dissociation of the complex. On-rate (kd) and off-rate (kd) were calculated based on association and dissociation curve, and were used to estimate the equilibrium dissociation constant (KD).

[2] = molecular target: T1, AFP158/HLA-A*02:01 complex; assay: SPR; vs AS170036 VL1VH1
[3] = molecular target: T1, AFP158/HLA-A*02:01 complex; assay: SPR; vs AS170036 VL1VH1; remark: listed apart in the source
Procedure: as §1

[4] = molecular target: RCL1 peptide/HLA-A*02:01 complex (recombinant) (human, UniProt P16213 21-119 (Pongo pygmaeus entry)); assay: SPR
[5] = molecular target: PTP4A1 peptide/HLA-A*02:01 complex (recombinant) (human); assay: SPR
[6] = molecular target: ATG9A peptide/HLA-A*02:01 complex (recombinant) (human); assay: SPR
[7] = molecular target: BRCA2 peptide/HLA-A*02:01 complex (recombinant) (human); assay: SPR
[8] = molecular target: ZNF566 peptide/HLA-A*02:01 complex (recombinant) (human); assay: SPR
[9] = molecular target: OR1I1 peptide/HLA-A*02:01 complex (recombinant) (human); assay: SPR
[10] = molecular target: OR51B6 peptide/HLA-A*02:01 complex (recombinant) (human); assay: SPR
[11] = molecular target: NR2E1 peptide/HLA-A*02:01 complex (recombinant) (human); assay: SPR
[12] = molecular target: CDC14A peptide/HLA-A*02:01 complex (recombinant) (human); assay: SPR
[13] = molecular target: RP1 peptide/HLA-A*02:01 complex (recombinant) (human, UniProt P16213 21-119 (Pongo pygmaeus entry)); assay: SPR
[14] = molecular target: T1, AFP158/HLA-A*02:01 complex; assay: SPR, scFv-mIgG2aFc from supernatant captured, complex as analyte
Procedure: (§2) The binding affinity between selected antibodies and AFP158/HLA-A*02:01 complex was determined by surface plasmon resonance (SPR) on a BIAcore T200 instrument (GE Healthcare). The experiment was carried out as follows. The purified sdAb/scFv-mIgG2aFc protein were captured through mIgG2a-Fc onto the sensorchip. […] On-rate (kₐ) and off-rate (kd) were calculated based on association and dissociation curve, and were used to estimate the equilibrium dissociation constant (KD).
(§3) Humanized heavy chains and light chains were combined, and used to produce a series of humanized antibodies. These antibodies were synthesized as scFv-mIgG2aFc and transiently produced using HEK293 cells. The antibodies in the supernatant were subjected to SPR affinity assessment.

[15] = molecular target: T1, AFP158/HLA-A*02:01 complex; assay: as above; remark: listed apart in the source
Procedure: as §2, §3

B1: AS170036 VL1VH1-VHS57H (scFv)
scFv: QSALTQPRSVSGSPGQSVTISCAGTSSDVGSENYVSWYQQHPGKAPKLMIYQVNKRASGVPDRFSGSKSGNTASLTISGLQAEDEADYYCASYRSSDHNIVFGGGTKLTVLGGGGSGGGGSGGGGSEVQLVESGGGLVQPGGSLRLSCAASGFTFSSYAMSWVRQAPGKGLEWVSTINSGTGHPYYADSVKGRFTISRDNSKNTLYLQMNSLRAEDTAVYYCAKNFFDGSWFLGPPAMDYWGQGTLVTVSSHHHHHH
[1]
  Kd: 35 nM
[2]
  Affinity increase: > 2 fold
[3]
  Affinity increase: 6.9 fold
[4]
  binding result: no binding (tested: all below 3.5 RU)
[5]
  binding result: no binding (tested: all below 3.5 RU)
[6]
  binding result: no binding (tested: all below 3.5 RU)
[7]
  binding result: no binding (tested: all below 3.5 RU)
[8]
  binding result: no binding (tested: all below 3.5 RU)
[9]
  binding result: no binding (tested: all below 3.5 RU)
[10]
  binding result: no binding (tested: all below 3.5 RU)
[11]
  binding result: no binding (tested: all below 3.5 RU)
[12]
  binding result: no binding (tested: all below 3.5 RU)
[13]
  binding result: no binding (tested: all below 3.5 RU)

B2: AS170036 VL1VH1-VHS57K (scFv)
scFv: QSALTQPRSVSGSPGQSVTISCAGTSSDVGSENYVSWYQQHPGKAPKLMIYQVNKRASGVPDRFSGSKSGNTASLTISGLQAEDEADYYCASYRSSDHNIVFGGGTKLTVLGGGGSGGGGSGGGGSEVQLVESGGGLVQPGGSLRLSCAASGFTFSSYAMSWVRQAPGKGLEWVSTINSGTGKPYYADSVKGRFTISRDNSKNTLYLQMNSLRAEDTAVYYCAKNFFDGSWFLGPPAMDYWGQGTLVTVSSHHHHHH
[1]
  Kd: 56 nM
[2]
  Affinity increase: > 2 fold
[3]
  Affinity increase: 4.4 fold
[4]
  binding result: no binding (tested: all below 3.5 RU)
[5]
  binding result: no binding (tested: all below 3.5 RU)
[6]
  binding result: no binding (tested: all below 3.5 RU)
[7]
  binding result: no binding (tested: all below 3.5 RU)
[8]
  binding result: no binding (tested: all below 3.5 RU)
[9]
  binding result: no binding (tested: all below 3.5 RU)
[10]
  binding result: no binding (tested: all below 3.5 RU)
[11]
  binding result: no binding (tested: all below 3.5 RU)
[12]
  binding result: no binding (tested: all below 3.5 RU)
[13]
  binding result: no binding (tested: all below 3.5 RU)

B3: AS170036 VL1VH1-VHS57M (scFv)
scFv: QSALTQPRSVSGSPGQSVTISCAGTSSDVGSENYVSWYQQHPGKAPKLMIYQVNKRASGVPDRFSGSKSGNTASLTISGLQAEDEADYYCASYRSSDHNIVFGGGTKLTVLGGGGSGGGGSGGGGSEVQLVESGGGLVQPGGSLRLSCAASGFTFSSYAMSWVRQAPGKGLEWVSTINSGTGMPYYADSVKGRFTISRDNSKNTLYLQMNSLRAEDTAVYYCAKNFFDGSWFLGPPAMDYWGQGTLVTVSSHHHHHH
[1]
  Kd: 90 nM
[2]
  Affinity increase: > 2 fold
[3]
  Affinity increase: 2.7 fold
[4]
  binding result: no binding (tested: all below 3.5 RU)
[5]
  binding result: no binding (tested: all below 3.5 RU)
[6]
  binding result: no binding (tested: all below 3.5 RU)
[7]
  binding result: no binding (tested: all below 3.5 RU)
[8]
  binding result: no binding (tested: all below 3.5 RU)
[9]
  binding result: no binding (tested: all below 3.5 RU)
[10]
  binding result: no binding (tested: all below 3.5 RU)
[11]
  binding result: no binding (tested: all below 3.5 RU)
[12]
  binding result: no binding (tested: all below 3.5 RU)
[13]
  binding result: no binding (tested: all below 3.5 RU)

B4: AS179723 VL1g1VH1g1 scFv-mIgG2aFc (Fc fusion, not shown: a dimerising Fc or GST)
scFv: QSVLTQPPSASGTPGQRVTISCSGSSNNIGGNYVNWYQQLPGTAPKLLIYDNKNRPSGVPDRFSGSKSGTSASLAISGLQSEDEADYYCASWDDSLSAVVFGGGTKLTVLGGGGSGGGGSGGGGSEVQLVESGGGLVQPGGSLRLSCAASGFTFLNYAMSWVRQAPGKGLEWVSSNSGAGSTYYADSVKGRFTISRDNSKNTLYLQMNSLRAEDTAVYYCAKGTNVGSWSSLHYWGQGTLVTVSS
[14]
  Kd: 320 nM
  koff: 0.029 s⁻¹
  kon: 91000 M⁻¹ s⁻¹

B5: AS179723 VL1VH1 scFv-mIgG2aFc (Fc fusion, not shown: a dimerising Fc or GST)
scFv: QSVLTQPPSASGTPGQRVTISCTGSSNNIGGNYVNWYQQLPGTAPKLLIYDNKNRPSGVPDRFSGSKSGTSASLAISGLQSEDEADYYCASWDDSLSAVVFGGGTKLTVLGGGGSGGGGSGGGGSEVQLVESGGGLVQPGGSLRLSCAASGFTFLNYAMSWVRQAPGKGLEWVSSNSGAGSTYYSDSVKGRFTISRDNSKNTLYLQMNSLRAEDTAVYYCAKGTNVGSWSSLHYWGQGTLVTVSS
[14]
  Kd: 320 nM
  koff: 0.031 s⁻¹
  kon: 98000 M⁻¹ s⁻¹

B6: AS179723 VL1VH1g1 scFv-mIgG2aFc (Fc fusion, not shown: a dimerising Fc or GST)
scFv: QSVLTQPPSASGTPGQRVTISCTGSSNNIGGNYVNWYQQLPGTAPKLLIYDNKNRPSGVPDRFSGSKSGTSASLAISGLQSEDEADYYCASWDDSLSAVVFGGGTKLTVLGGGGSGGGGSGGGGSEVQLVESGGGLVQPGGSLRLSCAASGFTFLNYAMSWVRQAPGKGLEWVSSNSGAGSTYYADSVKGRFTISRDNSKNTLYLQMNSLRAEDTAVYYCAKGTNVGSWSSLHYWGQGTLVTVSS
[14]
  Kd: 310 nM
  koff: 0.03 s⁻¹
  kon: 99000 M⁻¹ s⁻¹

B7: AS179723 VL1g1VH1 scFv-mIgG2aFc (Fc fusion, not shown: a dimerising Fc or GST)
scFv: QSVLTQPPSASGTPGQRVTISCSGSSNNIGGNYVNWYQQLPGTAPKLLIYDNKNRPSGVPDRFSGSKSGTSASLAISGLQSEDEADYYCASWDDSLSAVVFGGGTKLTVLGGGGSGGGGSGGGGSEVQLVESGGGLVQPGGSLRLSCAASGFTFLNYAMSWVRQAPGKGLEWVSSNSGAGSTYYSDSVKGRFTISRDNSKNTLYLQMNSLRAEDTAVYYCAKGTNVGSWSSLHYWGQGTLVTVSS
[14]
  Kd: 360 nM
  koff: 0.034 s⁻¹
  kon: 93000 M⁻¹ s⁻¹

B8: AS179732 VL1VH1 scFv-mIgG2aFc (Fc fusion, not shown: a dimerising Fc or GST)
scFv: QSVLTQPPSASGTPGQRVTISCTGSSSNIGGNYVNWYQQLPGTAPKLLIYDNSNRASGVPDRFSGSKSGTSASLAISGLQSEDEADYYCASWDDSLSGAVFGGGTKLTVLGGGGSGGGGSGGGGSEVQLVESGGGLVQPGGSLRLSCAASGFTFLNYAMSWVRQAPGKGLEWVSSNSGAGSTYYSDSVKGRFTISRDNSKNTLYLQMNSLRAEDTAVYYCAKGTNVGSWSSLHYWGQGTLVTVSS
[15]
  Kd: 440 nM
  koff: 0.056 s⁻¹
  kon: 130000 M⁻¹ s⁻¹

B9: AS179732 VL1VH1g1 scFv-mIgG2aFc (Fc fusion, not shown: a dimerising Fc or GST; small tags and cut ends)
scFv: QSVLTQPPSASGTPGQRVTISCTGSSSNIGGNYVNWYQQLPGTAPKLLIYDNSNRASGVPDRFSGSKSGTSASLAISGLQSEDEADYYCASWDDSLSGAVFGGGTKLTVLGGGGSGGGGSGGGGSEVQLVESGGGLVQPGGSLRLSCAASGFTFLNYAMSWVRQAPGKGLEWVSSNSGAGSTYYADSVKGRFTISRDNSKNTLYLQMNSLRAEDTAVYYCAKGTNVGSWSSLHYWGQGTLVTVSS
[15]
  Kd: 520 nM
  koff: 0.065 s⁻¹
  kon: 130000 M⁻¹ s⁻¹

B10: AS179732 VL1g1VH1 scFv-mIgG2aFc (Fc fusion, not shown: a dimerising Fc or GST; small tags and cut ends)
scFv: QSVLTQPPSASGTPGQRVTISCSGSSSNIGGNYVNWYQQLPGTAPKLLIYDNSNRASGVPDRFSGSKSGTSASLAISGLQSEDEADYYCASWDDSLSGAVFGGGTKLTVLGGGGSGGGGSGGGGSEVQLVESGGGLVQPGGSLRLSCAASGFTFLNYAMSWVRQAPGKGLEWVSSNSGAGSTYYSDSVKGRFTISRDNSKNTLYLQMNSLRAEDTAVYYCAKGTNVGSWSSLHYWGQGTLVTVSS
[15]
  Kd: 450 nM
  koff: 0.056 s⁻¹
  kon: 120000 M⁻¹ s⁻¹

B11: AS179732 VL1g1VH1g1 scFv-mIgG2aFc (Fc fusion, not shown: a dimerising Fc or GST; small tags and cut ends)
scFv: QSVLTQPPSASGTPGQRVTISCSGSSSNIGGNYVNWYQQLPGTAPKLLIYDNSNRASGVPDRFSGSKSGTSASLAISGLQSEDEADYYCASWDDSLSGAVFGGGTKLTVLGGGGSGGGGSGGGGSEVQLVESGGGLVQPGGSLRLSCAASGFTFLNYAMSWVRQAPGKGLEWVSSNSGAGSTYYADSVKGRFTISRDNSKNTLYLQMNSLRAEDTAVYYCAKGTNVGSWSSLHYWGQGTLVTVSS
[15]
  Kd: 450 nM
  koff: 0.057 s⁻¹
  kon: 130000 M⁻¹ s⁻¹

B12: AS179723 VL1g1VH1g1-N73Y scFv-mIgG2aFc (Fc fusion, not shown: a dimerising Fc or GST)
chain: QSVLTQPPSASGTPGQRVTISCSGSSNNIGGNYVNWYQQLPGTAPKLLIYDNKNRPSGVPDRFSGSKSGTSASLAISGLQSEDEADYYCASWDDSLSAVVFGGGTKLTVLGGGGSGGGGSGGGGSEVQLVESGGGLVQPGGSLRLSCAASGFTFLNYAMSWVRQAPGKGLEWVSSNSGAGSTYYADSVKGRFTISRDYSKNTLYLQMNSLRAEDTAVYYCAKGTNVGSWSSLHYWGQGTLVTVSS
notes: Humanized
[14]
  Kd: 56 nM

B13: AS179732 VL1g1VH1g1-N73Y scFv-mIgG2aFc (Fc fusion, not shown: a dimerising Fc or GST)
chain: QSVLTQPPSASGTPGQRVTISCSGSSSNIGGNYVNWYQQLPGTAPKLLIYDNSNRASGVPDRFSGSKSGTSASLAISGLQSEDEADYYCASWDDSLSGAVFGGGTKLTVLGGGGSGGGGSGGGGSEVQLVESGGGLVQPGGSLRLSCAASGFTFLNYAMSWVRQAPGKGLEWVSSNSGAGSTYYADSVKGRFTISRDYSKNTLYLQMNSLRAEDTAVYYCAKGTNVGSWSSLHYWGQGTLVTVSS
notes: Humanized
[15]
  Kd: 54 nM
